The values that follow come from US20230287120A1 (ALLOGENE THERAPEUTICS, published 2023).

Test [1] concerns the target T1, human DLL3 on cells (endogenous on SHP-77, DMS 273, DMS 454; full length human DLL3 by lentivirus on HEK-293T) (human, UniProt Q9NYJ7 27-618).
T1 construct: whole, on cells
T1 sequence (looked up): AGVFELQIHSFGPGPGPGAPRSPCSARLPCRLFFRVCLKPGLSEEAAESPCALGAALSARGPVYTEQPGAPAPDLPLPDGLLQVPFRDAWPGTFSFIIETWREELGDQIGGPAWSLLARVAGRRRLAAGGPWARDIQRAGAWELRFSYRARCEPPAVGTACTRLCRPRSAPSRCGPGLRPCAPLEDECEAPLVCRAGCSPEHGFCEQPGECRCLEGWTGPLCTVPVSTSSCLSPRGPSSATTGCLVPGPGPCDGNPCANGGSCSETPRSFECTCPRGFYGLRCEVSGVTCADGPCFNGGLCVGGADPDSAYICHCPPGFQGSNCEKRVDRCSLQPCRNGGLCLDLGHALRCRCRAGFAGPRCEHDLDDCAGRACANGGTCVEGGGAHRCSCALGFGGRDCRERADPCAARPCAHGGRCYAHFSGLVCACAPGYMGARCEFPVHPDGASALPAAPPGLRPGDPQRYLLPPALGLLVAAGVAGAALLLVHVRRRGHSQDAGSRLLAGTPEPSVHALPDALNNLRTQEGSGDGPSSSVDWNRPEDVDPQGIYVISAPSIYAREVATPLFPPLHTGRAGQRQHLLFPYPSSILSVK
Nature of the test: flow cytometry on DMS 273, DMS 454 and SHP-77 cells, 2 ug/ml antibody, PE anti-mouse IgG. In general terms: Flow cytometry measures light scatter and fluorescence of single cells or particles in a stream.

Test [2] deals with T2, full length human DLL3 with N-terminal HA tag, expressed on CHO cells (human, UniProt Q9NYJ7 27-618).
T2 construct: also called Human DLL3 complete ECD
T2 sequence: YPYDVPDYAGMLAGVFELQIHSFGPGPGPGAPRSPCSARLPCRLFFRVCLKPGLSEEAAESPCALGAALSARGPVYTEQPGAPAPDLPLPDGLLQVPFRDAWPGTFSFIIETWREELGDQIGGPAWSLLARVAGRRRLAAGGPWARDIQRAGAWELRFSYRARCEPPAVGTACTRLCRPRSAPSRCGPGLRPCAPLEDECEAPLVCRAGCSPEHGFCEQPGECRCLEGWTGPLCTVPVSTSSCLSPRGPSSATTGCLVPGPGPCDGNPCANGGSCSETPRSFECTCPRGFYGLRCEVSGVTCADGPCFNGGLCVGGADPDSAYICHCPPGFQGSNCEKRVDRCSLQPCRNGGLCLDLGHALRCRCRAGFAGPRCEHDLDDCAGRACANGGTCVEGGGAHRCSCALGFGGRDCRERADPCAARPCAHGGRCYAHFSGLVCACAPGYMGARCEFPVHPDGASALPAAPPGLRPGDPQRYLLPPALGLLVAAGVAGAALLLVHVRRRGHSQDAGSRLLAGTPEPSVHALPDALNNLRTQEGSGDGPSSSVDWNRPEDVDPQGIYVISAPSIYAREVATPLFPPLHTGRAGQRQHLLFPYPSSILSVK
Briefly: flow cytometry on CHO cells with full length and truncated human DLL3; column Binds to DLL3 Domain.

In test [3] the target is T3, Flag tagged recombinant DLL3 (Adipogen) (Homo sapiens (Human), UniProt Q9NYJ7 27-492).
T3 construct: Bought reagent; also called Flag-DLL3
T3 sequence: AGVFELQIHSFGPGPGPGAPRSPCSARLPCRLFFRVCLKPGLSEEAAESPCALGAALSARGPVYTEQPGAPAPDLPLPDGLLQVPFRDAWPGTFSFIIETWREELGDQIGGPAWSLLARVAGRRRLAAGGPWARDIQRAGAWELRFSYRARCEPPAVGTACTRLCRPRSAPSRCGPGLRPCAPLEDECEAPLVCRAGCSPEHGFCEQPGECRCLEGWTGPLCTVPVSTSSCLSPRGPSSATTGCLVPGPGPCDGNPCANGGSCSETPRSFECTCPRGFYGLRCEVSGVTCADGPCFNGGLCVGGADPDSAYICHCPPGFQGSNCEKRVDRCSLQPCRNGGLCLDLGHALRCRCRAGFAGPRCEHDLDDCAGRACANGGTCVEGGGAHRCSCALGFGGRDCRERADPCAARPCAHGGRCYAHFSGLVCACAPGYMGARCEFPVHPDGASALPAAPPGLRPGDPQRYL
Nature of the test: flow cytometry, primary T cells with the CAR, Flag tagged recombinant DLL3, PE anti-Flag.

B1: anti-DLL3 antibody 10G1-K (antibody, V domains shown)
VH: EVQLLESGGGLVQPGGSLRLSCAASGFTFSSYAMNWVRQAPGKGLEWVSTISGSGGSTYYADSVKGRFTISRDNSKNTLYLQMNSLRAEDTAVFYCAIDPEYYDILTGGDYWGQGTLVTVSS
VL: DIQMTQSPSAMSASVGDRVTITCRASQGISNYLAWFQQKPGKVPKRLIYAASSLQSGVPSRFSGSGSGTEFTLTISSLQPEDFATYFCLQHDSFPLTFGGGTKVEIK
B1: the binding result in test [1] and in test [2] was “binds” throughout.

B2: anti-DLL3 antibody 4E6 (antibody, V domains shown)
VH: QVQLQESGPGLVKPSETLSLTCTVSSDSISSYYWSWIRQPPGKGLEWISYIYYSGISNYNPSLKSRVSISVDTSKNQFSLRLSSVTAADTAVYYCARISVAGFFFDNWGQGTLVTVSS
VL: EIMLTQSPDTLSLSPGERATLSCRASQSVSSSYLAWYQQKPGQAPRLLIYGASSRAAGVPDRFSGSGSGTDFTLTISRLAPEDFVVYYCQQYGISPLTFGGGTKVEIK
As to B2, the binding result in test [1] and in test [2] was “binds” each time.

B3: 10G1-K R2S (other)
CAR: GGGGSCPYSNPSLCGGGGSCPYSNPSLCGGGGSEVQLLESGGGLVQPGGSLRLSCAASGFTFSSYAMNWVRQAPGKGLEWVSTISGSGGSTYYADSVKGRFTISRDNSKNTLYLQMNSLRAEDTAVFYCAIDPEYYDILTGGDYWGQGTLVTVSSGGGGSGGGGSGGGGGSGGGGSDIQMTQSPSAMSASVGDRVTITCRASQGISNYLAWFQQKPGKVPKRLIYAASSLQSGVPSRFSGSGSGTEFTLTISSLQPEDFATYFCLQHDSFPLTFGGGTKVEIKTTTPAPRPPTPAPTIASQPLSLRPEACRPAAGGAVHTRGLDFACDIYIWAPLAGTCGVLLLSLVITKRGRKKLLYIFKQPFMRPVQTTQEEDGCSCRFPEEEEGGCELRVKFSRSADAPAYQQGQNQLYNELNLGRREEYDVLDKRRGRDPEMGGKPRRKNPQEGLYNELQKDKMAEAYSEIGMKGERRRGKGHDGLYQGLSTATKDTYDALHMQALPPR
notes: member of group m46; also called 10G1-K-R2S anti-DLL3 CAR with safety switch, on primary T cells
With B3, in test [3], the “Rec-DLL3+ gate, percent of live CD3+ cells” value came out at 39.3%.

B4: 3E4 (antibody, V domains shown)
VH: QVQLQQWGAGLLKPSETLSLTCAVYGGSFSGYYWSWIRQPPGKGLEWIGEIIHSGSSNYNPSLKSRVSISVDTSKNQFSLKLSSVTAADTAVYYCSRGEYGSGSRFDYWGQGTLVTVSS
VL: AIQMTQSPSSLSASVGDRVAITCRASQGIRDDLGWYQQKPGKAPKLLIYAASSLQSGVPSRFSGSRSDTDFTLTISSLQPEDFATYYCLQDYDYPLTFGGGTKVEIK
notes: also called anti-DLL3 antibody 3E4 (purified, mouse IgG2A backbone)
Take B4: the binding result in test [1] was “binds”.
